Assay results: patent US20100021473A1 (DOMANTIS, published 2010)
Numbering of substitutions follows the chain as printed. One block for each binder: values may come before it.

What was measured:
[1] = target: CD138 and CD56 co-expressed on cells (CD138+/CD56+ double positive cells) (UniProt P18827); experiment: cell-based or functional assay
[2] = target: T1, CEA immobilised on Biacore CM5 chip (UniProt P06731 35-685, limits assumed); experiment: Biacore, CEA immobilised
T1 construct: also called DOM13
T1 sequence (looked up): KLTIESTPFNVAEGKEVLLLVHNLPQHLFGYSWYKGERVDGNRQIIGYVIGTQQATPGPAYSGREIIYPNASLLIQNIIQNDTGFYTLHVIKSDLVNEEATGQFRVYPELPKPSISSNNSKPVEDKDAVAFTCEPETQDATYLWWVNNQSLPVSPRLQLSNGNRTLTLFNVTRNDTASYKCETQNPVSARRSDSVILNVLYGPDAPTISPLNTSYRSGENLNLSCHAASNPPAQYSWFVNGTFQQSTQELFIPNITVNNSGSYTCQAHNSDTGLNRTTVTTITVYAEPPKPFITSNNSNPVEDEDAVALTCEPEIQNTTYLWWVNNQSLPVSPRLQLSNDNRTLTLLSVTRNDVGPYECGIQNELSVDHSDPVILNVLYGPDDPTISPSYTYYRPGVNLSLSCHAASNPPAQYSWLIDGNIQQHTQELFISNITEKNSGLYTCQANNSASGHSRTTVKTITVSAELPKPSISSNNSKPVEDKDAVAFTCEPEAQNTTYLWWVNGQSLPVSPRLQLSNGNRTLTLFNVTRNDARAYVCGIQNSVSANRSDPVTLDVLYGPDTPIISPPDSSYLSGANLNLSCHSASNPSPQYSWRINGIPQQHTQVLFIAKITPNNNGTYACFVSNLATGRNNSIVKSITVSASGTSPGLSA
Method: (§1) Anti-CD38, anti-CEA and anti-CD56 dAbs that were identified as FACS positive clones were in addition analysed by Biacore using the following procedure. The CM5 chip surface was activated by flushing 1:1 EDC/NHS (0.4M1-ethyl-3-(3-dimenthylaminopropyl)-carbodiimide in water; 0.1 M N-hydroxysuccinimide in water) at a flow rate of 5 uL/min for 10 minute contact time. CD38 was immobilised at 500 nM in Acetate buffer pH4 at 5 uL/min this was repeated until the RUs reached between 500 and 1000 (low density). CEA and CD56 were coupled in acetate buffer pH 4.5. Any excess reactive groups were deactivated by running 1M ethanolamine-HCl over the CM5 chip (again 5 uL/min for 7 mins). The affinities of the anti-CD38, anti-CEA and anti-CD56 dAbs were measured on the biacore as described above.

[3] = target: T2, NCA on H647 cells (UniProt P40199 35-320, limits assumed); experiment: FACS on H647 cells (CEA-/NCA+)
T2 construct: whole, on cells; Its identity is an inference
T2 sequence (looked up): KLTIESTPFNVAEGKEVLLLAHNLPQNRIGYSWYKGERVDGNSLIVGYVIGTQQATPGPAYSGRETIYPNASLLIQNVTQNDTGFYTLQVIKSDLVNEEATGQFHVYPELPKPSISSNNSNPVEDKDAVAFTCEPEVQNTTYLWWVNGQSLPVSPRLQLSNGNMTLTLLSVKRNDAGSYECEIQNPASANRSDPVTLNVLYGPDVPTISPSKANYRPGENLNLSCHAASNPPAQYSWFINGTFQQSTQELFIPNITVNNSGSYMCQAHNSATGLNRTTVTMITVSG
Method: (§2) All dAbs were analysed by FACS on antigen positive and negative cell lines using the following method.
(§3) The determination of cell binding by FACS was carried out as follows: cells were centrifuged at 250 g for 5 minutes and the growth medium was removed. The cells were resuspended in FACS incubation buffer at 4° C. at a density of 2×10⁶ cells/ml. The cells were blocked by incubating for 15 minutes at 4° C. in FACS incubation buffer. Fifty microliters of 2× stock of primary antibody (anti-CD38 FITC, anti-CD138 FITC or mIgG1 FITC conjugated isotype control (all BD Biosciences) was added; or dAb was added to cells in FACS incubation buffer and incubated for 30-60 minutes at 4° C. The cells were then washed once in FACS incubation buffer. One hundred microliters of secondary antibody (rabbit anti-Vk) was added to cells in FACS incubation buffer and incubated 30-60 minutes at 4° C. The cells were washed once in FACS incubation buffer. Then 100 ul of 1× tertiary antibody was added to the cells in FACS incubation buffer and incubated for 30-60 mins at 4° C. (for dAbs the tertiary antibody is anti-rabbit FITC (Sigma)). The cells were washed twice in FACS incubation buffer. The cell pellet was resuspend in 200 ul FACS incubation buffer+viable cell marker (BD Viaprobe). The cells were then analyzed by flow cytometry.

[4] = target: T3, CD38 immobilised on Biacore CM5 chip (UniProt P28907 43-300, limits assumed); experiment: Biacore, CD38 immobilised
T3 construct: also called DOM11
Method: as §1
Affinity maturation libraries were created for the anti-CD38 dAbs DOM11-3 and DOM11-30 by error prone PCR. […] Initial screening was carried out by BIAcore (as described previously) and subsequently by FACS.

[5] = target: T3, CD38 immobilised on Biacore CM5 chip; experiment: SPR (Biacore), CD38 immobilised on CM5 chip
Method: as §1

[6] = target: T4, CD138 on cells (UniProt P18827 23-310); experiment: FACS on RPMI cells (CD38+/138+)
T4 construct: whole, on cells; Endogenous CD138 on cell lines used in FACS; also called DOM12; syndecan-1
T4 sequence (looked up): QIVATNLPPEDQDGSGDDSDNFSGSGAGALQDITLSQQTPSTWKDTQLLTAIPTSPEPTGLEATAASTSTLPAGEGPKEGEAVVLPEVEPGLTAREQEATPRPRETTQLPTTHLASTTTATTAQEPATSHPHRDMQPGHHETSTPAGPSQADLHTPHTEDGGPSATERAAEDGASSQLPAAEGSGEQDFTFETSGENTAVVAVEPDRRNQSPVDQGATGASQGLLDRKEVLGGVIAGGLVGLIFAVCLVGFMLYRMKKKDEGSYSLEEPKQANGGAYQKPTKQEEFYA
Method: as §2, §3

[7] = target: T5, CD38 on cells (UniProt P28907 1-300); experiment: FACS on RPMI cells (CD38+/138+)
T5 construct: whole, on cells; Endogenous CD38 on cell lines used in FACS or microscopy; also called DOM11; T10
Method: as §2, §3

[8] = target: T4, CD138 on cells; experiment: FACS on HUVEC cells (CD38-/CD138+)
Method: as §2, §3

[9] = target: T6, CD38 and CD138 co-expressed on cells (CD38+/CD138+ double positive cells) (UniProt P28907 1-300; P18827 23-310); experiment: cell-based or functional assay
T6 construct: whole, on cells; Two separate membrane proteins on the same cell, not a complex; also called RPMI8226; OPM2

B2: DOM13-59 (other)
chain: DIQMTQSPSSLSASVGDRVTITCRASQKIMTHLRWYQQKPGKAPKLLIYGGSHLQSGVPSRFSGSGSGTDFTLTISSLQPEDFATYYCQQTWVSPMTFGQGTKVEIRR
notes: Anti-CEA dAb monomer
Kd [2]: 400 to 800 nM
binding result [3]: no binding

B3: DOM11-30 (other)
chain: DIQITQSPSSLSASVGDRITITCRASQKIENDLAWYQQKPGKAPKLLIYYTSILQSGVPSRFSGSGSGTDFTLTISSLQPEDFATYYCQQRRYVPATFGQGTKVEIKR
notes: Anti-CD38 dAb monomer
Kd [4]: 190 to 230 nM
Kd [5]: 150 nM

B7: DOM13-25 (other)
chain: DIQMTQSPSSLSASVGDRVTITCRASQSIGPWLSWYQQKPGKAPKLLIYQVSRLQSGVPSRFSGSGSGTDFTLTISSLQPEDFATYYCQQNLAPPYTFGQGTKVEIKR
notes: Anti-CEA dAb monomer
Kd [2]: 100 to 200 nM
binding result [3]: no binding

B9: DOM11-30/DOM12-45 anti-CD38/anti-CD138 dual specific ligand (bispecific antibody, part only; not given: linker between dAbs, not shown: small tags and cut ends)
chain, part: DIQITQSPSSLSASVGDRITITCRASQKIENDLAWYQQKPGKAPKLLIYYTSILQSGVPSRFSGSGSGTDFTLTISSLQPEDFATYYCQQRRYVPATFGQGTKVEIKRDIQMTQSPSSLSASVGDRVTITCRASQDIGDRLRWYQQKPGKAPKLLIYHGSRLESGVPSRFSGSRSGTDFTLTISSLQPEDFATYYCQQQWFRPYTFGQGTKVEIKR
% internalized [9]: 8%

Other lines, results leading:

% internalized [1]: 43%
B1: DOM14-23/DOM12-45 anti-CD138/anti-CD56 dual specific ligand (bispecific antibody, part only; not given: linker between dAbs, not shown: small tags and cut ends)
chain, part: DIQMTQSPSSLSASVGDRVTITCRASQDIFPFLNWYQQKPGKAPELLIYRASILHSGVPSRFSGSGSGTDFTLTISSLQPEDFATYYCQQIARSPRTFGQGTKVEIKRDIQMTQSPSSLSASVGDRVTITCRASQDIGDRLRWYQQKPGKAPKLLIYHGSRLESGVPSRFSGSRSGTDFTLTISSLQPEDFATYYCQQQWFRPYTFGQGTKVEIKR

binding result [6]: binds
B4: DOM12-17 (other)
chain: B3 chain with I4M, I19V, K28S, E30G, D32N, A34L, I53R, Y93T, V94H, A96H
notes: Anti-CD138 dAb monomer

binding result [6]: binds
B5: DOM12-26 (other)
chain: DIQMTQSPSSLSASVGDRVTITCRASQDIFTKLRWYQQKPGKAPRLLIYAGSRLQSGVPSRFSGSGSGTDFTLTISSLQPEDFATYYCQQVKQKPWTFGQGTKVEIKR
notes: Anti-CD138 dAb monomer

binding result [7]: binds
binding result [8]: no binding
B6: DOM11-7 (other)
chain: B7 chain with S28Y, G30N, P31T, W32L, Q50A, V51Q, N91F, L92A, A93F, P94R
notes: Anti-CD38 dAb monomer

Kd [2]: 100 to 200 nM
binding result [3]: no binding
B8: DOM13-74 (other)
chain: DIQMTQSPSSLSASVGDRVTITCRASQPIKMMLSWYQQKPGKAPKLLIYNNSTLQSGVPSRFSGSGSGTDFTLTISSLQPEDFATYYCQQYRRWPYTFSQGTKVEIKR
notes: Anti-CEA dAb monomer
